Experimental data taken from article PMC10511499.

B1: LIS1, wild type, as used in mass photometry (construct not told) [human] / human Ndel1 coiled-coil domain (Ndel1^CC, residues 1-195) [human] (parent)
chain 1: MVLSQRQRDELNRAIADYLRSNGYEEAYSVFKKEAELDVNEELDKKYAGLLEKKWTSVIRLQKKVMELESKLNEAKEEFTSGGPLGQKRDPKEWIPRPPEKYALSGHRSPVTRVIFHPVFSVMVSASEDATIKVWDYETGDFERTLKGHTDSVQDISFDHSGKLLASCSADMTIKLWDFQGFECIRTMHGHDHNVSSVAIMPNGDHIVSASRDKTIKMWEVQTGYCVKTFTGHREWVRMVRPNQDGTLIASCSNDQTVRVWVVATKECKAELREHEHVVECISWAPESSYSSISEATGSETKKSGKPGPFLLSGSRDKTIKMWDVSTGMCLMTLVGHDNWVRGVLFHSGGKFILSCADDKTLRVWDYKNKRCMKTLNAHEHFVTSLDFHKTAPYVVTGSVDQTVKVWECR
chain 2: MDGEDIPDFSSLKEETAYWKELSLKYKQSFQEARDELVEFQEGSRELEAELEAQLVQAEQRNRDLQADNQRLKYEVEALKEKLEHQYAQSYKQVSVLEDDLSQTRAIKEQLHKYVRELEQANDDLERAKRATIVSLEDFEQRLNQAIERNAFLESELDEKESLLVSVQRLKDEARDLRQELAVRERQQEVTRKSA
B2: full-length yeast Pac1 with C-terminal FLAG-SNAPf [S. cerevisiae] / yeast Ndl1 coiled-coil domain (Ndl1^CC, residues 2-132) [S. cerevisiae] (parent)
chain 1: MTNWQQQLPLTDTQKNELDKSVLRYLNWNYKQTVRHEHAQDYESVRHAIVTLSGFLLQESVDRQEFISNNDTSNESMVDIDELLLPKKWNSIVRLQKKIIELEQNTETLVSQIKDLNTQVSELAQFKPTTSNGTSAHNVLKWIPRNLPSCLINVESSVTSVKLHPNLPIVFVATDHGKLYAFDLFNYTIPLASLQSHTKAITSMDVLFTNYTNSSKKNYLVIVTASKDLQIHVFKWVSEECKFQQIRSLLGHEHIVSAVKIWQKNNDVHIASCSRDQTVKIWDFHNGWSLKTFQPHSQWVRSIDVLGDYIISGSHDTTLRLTHWPSGNGLSVGTGHEFPIEKVKFIHFIEDSPEIRFRTPSTDRYKNWGMQYCVSASRDRTIKIWEIPLPTLMAHRAPIPNPTDSNFRCVLTLKGHLSWVRDISIRGQYLFSCADDKSVRCWDLNTGQCLHVWEKLHTGFVNCLDLDVDFDSNVTPRQMMVTGGLDCKSNVFMR
chain 2: VPNLDLETAIQIISSLETQLSELEGATKEYENDLEQVISKLKSDLLESQQQNKCNKKQITDLEIQVDELENENIQLRNKIETLQLESDRRLERNVLLEHELLDTKEALQKLRVSKEEATSGETRRNTRSLP

Variants of: B1
Assay: mass photometry
Conditions: with human Ndel1 coiled-coil domain (Ndel1^CC, residues 1-195) [human]; Proteins mixed at a 1:1 molar ratio

screen value [%]	Variant
5	chain 1 MVLSQRQRDELNRAIADYLRSNGYEEAYSVFKKEAELDVNEELDKKYAGLLEKKWTSVIRLQKKVMELESKLNEAKEEFTSGGPLGQKRDPKEWIPRPPEKYALSGHRSPVTRVIFHPVFSVMVSASEDATIKVWDYETGDFERTLKGHTDSVQDISFDHSGKLLASCSADMTIKLWDFQGFECIRTMHGHDHNVSSVAIMPNGDHIVSASRDKTIKMWEVQTGYCVKTFTGHREWVRMVRPNQDGTLIASCSNDQTVRVWVVATKECKAELREHEHVVECISWAPESSYSSISEATGSETKKSGKPGPFLLSGSADKTIKMWDVSTGMCLMTLVGHDNWVRGVLFHSGGKFILSCADDKTLRVWDYKNKRCMKTLNAHEHFVTSLDFHKTAPYVVTGSVDQTVKVWECR [chain 1 R316A]
0	chain 1 MVLSQRQRDELNRAIADYLRSNGYEEAYSVFKKEAELDVNEELDKKYAGLLEKKWTSVIRLQKKVMELESKLNEAKEEFTSGGPLGQKRDPKEWIPRPPEKYALSGHRSPVTRVIFHPVFSVMVSASEDATIKVWDYETGDFERTLKGHTDSVQDISFDHSGKLLASCSADMTIKLWDFQGFECIRTMHGHDHNVSSVAIMPNGDHIVSASRDKTIKMWEVQTGYCVKTFTGHREWVRMVRPNQDGTLIASCSNDQTVRVWVVATKECKAELREHEHVVECISWAPESSYSSISEATGSETKKSGKPGPFLLSGSRDKTIKMWDVSTGMCLMTLVGHDNAVRGVLFHSGGKFILSCADDKTLRVWDYKNKRCMKTLNAHEHFVTSLDFHKTAPYVVTGSVDQTVKVWECR [chain 1 W340A]

Variants of: B2
Assay: mass photometry
Conditions: with yeast Ndl1 coiled-coil domain (Ndl1^CC, residues 2-132) [S. cerevisiae]; Proteins mixed at a 1:1 molar ratio

screen value [%]	Variant
0	chain 1 MTNWQQQLPLTDTQKNELDKSVLRYLNWNYKQTVRHEHAQDYESVRHAIVTLSGFLLQESVDRQEFISNNDTSNESMVDIDELLLPKKWNSIVRLQKKIIELEQNTETLVSQIKDLNTQVSELAQFKPTTSNGTSAHNVLKWIPRNLPSCLINVESSVTSVKLHPNLPIVFVATDHGKLYAFDLFNYTIPLASLQSHTKAITSMDVLFTNYTNSSKKNYLVIVTASKDLQIHVFKWVSEECKFQQIRSLLGHEHIVSAVKIWQKNNDVHIASCSADQTVKIWDFHNGWSLKTFQPHSQWVASIDVLGDYIISGSHDTTLRLTHWPSGNGLSVGTGHEFPIEKVKFIHFIEDSPEIRFRTPSTDRYKNWGMQYCVSASADRTIKIWEIPLPTLMAHRAPIPNPTDSNFRCVLTLKGHLSAVRDISIRGQYLFSCADDASVRCWDLNTGQCLHVWEKLHTGFVNCLDLDVDFDSNVTPRQMMVTGGLDCKSNVFMR [chain 1 R275A R301A R378A W419A K437A]
